Experimental data reported in the RNAGym collection of RNA variant scans (doi:10.1073/pnas.2313332121).
Variants at the floor of the assay were thinned out.

B1: TPR 5TU (parent)
chain: GGAUCUUCUCGAUCUAACAAAAAAGACAAAUCUGCCACAAAGCUUGAGAGCAUCUUCGGAUGCAGAGGCGGCAGCCUUCGGUGGCGCGAUAGCGCCAACGUUCUCAACUAUGACACGCAAAACGCGUGCUCCGUUGAAUGGAGUUUAUCAUG

Variants of: B1
Test: polymerase ribozyme fitness, log enrichment relative to wild type (log ratio); higher = more active; in vitro selection for triplet polymerase activity
Method in brief: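 Fitness measures genotype enrichment against wild-type enrichment on a logarithmic scale, with inverse-variance-weighted averaging of replicates. The logarithm is base 2, and genotypes were kept only with ≥10 input reads and ≥1 read per output in Illumina sequencing. The sequenced libraries came from one triplicate in vitro selection round, including frozen incubation at −7 °C, of PCR-built, transcribed mutant libraries of each subunit of a heterodimeric triplet polymerase ribozyme.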

Row | Variant | polymerase ribozyme fitness (log ratio)
1 | GGAUCUUCUCGAUCUAACAAAAAAGACAAAUCUGCCACAAUGCUUGAGAGCAUCUUCGGAUGCAGAGGCGGCAGCCUUCGGUGGUGCGAUUGCGCCAACGUUCUCAUCUAUGACACGCAAAACGCGUGCUCCGUUGAAUGGAGUUUAUCAUG [A41U C85U A91U A107U] | ≤ -4.2
2 | GGAUCUUCUCGAUCUAACAAAUAAGACAAAUCUGCCACAAAGCUUGAGAGCAUCUUCGAAUGCAGAGGCGGCAGCCUUCGGUGGCGCGAUAGCGCCAACGUUCUCAACUAUGACACGCAAAACGCGUGCUCCGUUGAAUGGAGUUUAUCAUG [A22U G59A] | -0.47
3 | GGAUCUUCUCGAUCUAACAAAAAAGAAUAAUCUGCCACCAAGCUUGAGAGCAUGUUCGGAUGCAGAGGCGGCAGCCUUCGGUGGCGCGAUAGCGCAAACGUUCUCAACUAUGACACGCAAAACGCGUGCUCCGUUGAAUGGAGUUUAUCAUG [C27A A28U A39C C54G C96A] | ≤ -4.2
4 | GGAUCUUCUCGAUCUAACAAAAAAGACAAAUCUGCCACAAAGCUUGAGAGCAUCUUCGGAUGCAGAGGCGGCAGCCUUCGGUGGCGCGAUAGCACCAACGUUCCCAACUAUGACACGCAAAACGCGUGCUCCGUUGAAUGGAGUUUAUUAUG [G94A U104C C149U] | -1.16
5 | GGAUCUUCUCGAUCUUACAAAAAAGACAAAUCUGCCACAAAGCUUGAGAGCAUCUUCGGAUGCAGAGACGGCAGCCUUCGGUGGCGAGAUAGCCCCAACGUUCUCAACUAUGACACGCAAAACGCGUGCUCCGUUGAAUGAAGUUUAUCAUG [A16U G68A C87A G94C G141A] | ≤ -4.2
6 | GGAUCUUCUCGAUCUAACAAAAAGGACAAAUCUGCCACAAAGCUUGAGGGCAUCUUCGGAUGCAGAGGCGGCAGCCUUCGGUGGCGCGAUAGCGCCAACGUUCUUAACUAUGACACUCAAAACGCGUGCUCCGUUGAAUGGAGUUUAUCAUG [A24G A49G C105U G117U] | ≤ -4.2
7 | GGAUCUUCUCGAUCUAACAAAAAAGACAAAUCUGCCAAAAUGCUUGAGAGCCUCUUCGGAUGCAGAGGCGGCAGCCUUCGGUGGCGCGAUAGCGCCAACGUUCUCAACUAUGACACGCAAAACGCGUGCUCCGUUGAAUGGAGUUUAUCAUG [C38A A41U A52C] | -2.5
8 | GGAUCUUCUCGAUCUAACAAAAAAGACAAAUCGGCCACAAAGCUUGAGAGCAACUUCGGAUGCAGAGGCGGCAGCCUUCGGUGGCGCGAUAGCGCCAACGUUCUCAACUAUGACACGCAAAACGCGUGCUCCGUUGAAUGGAGUUUAUCAUG [U33G U53A] | -3.68
9 | GGAUCUUCUCGAUCUAACAAAAAAGACAAAUCUGCCGCAAAGCUUGCGAGCAUCUUCGGAUGCAGAGGCGGCAGCCUUCGGUGGCGCGAUAGCGCCAACUUUCUCAACUAUGACACGCAAAACGCGUGCUCCGUUGAAUGGAAUUUAUCAUG [A37G A47C G100U G143A] | ≤ -4.2
10 | GGAUCUUCUCUAUCUACCAAAAAAGACAAAUCUGCCUCAAAGCUUGAGAGCAUCUUCGGAUGCAGAGGCGGCAGCCUUCGGUGGCGCGAUAGCGCCAACGUUCUCAACUAUGACACGCAAUUCGCGUGCUCCGUUGAAUGGAGUUUAUCAUG [G11U A17C A37U A121U A122U] | -3.25
11 | GGAUCUUCUCGAUCUAACAAAAAAGACAAAUCUGCCACAAAGCUUGAGACCAUCUUCGGAUGCAGAGGCGGCAGCCUUCGGUGGCGCGAUAGCGCCAACGUUCUCAACUAUGACACGCAAAACGCGUGCCCCGUUGAAUGGAGUUUAUCAUG [G50C U130C] | -1.3
12 | GGAUCUUCUCGAUCUGACAAAAAAGUCAAACCUGCCACAAAGCUUGAGAGCAUCUUCGGAUGCAGAGGCGGCAGCCUUCGGAGGCGCGAUAGCGCCAACGUUCUCUACUAUGACACGCAAAACGCGUGCUACGUUGAAGGCAGUUUAUCAUG [A16G A26U U31C U82A A106U C131A U139G G141C] | ≤ -4.2
13 | GGAUCUUCUCGAUCUAACAAAAAAGACAAAUCUGCCACAAAGCUUGAGAGCAUCUUCGGAUGCAGAGGCGGCAGCUUUCGGUGGCGCAAUAGCGCCAAAGUUAUCAACUAUGACACGCAAAACGCGUGCUCCGUUGAAUGGAGUUUAUCAUG [C76U G88A C99A C103A] | ≤ -4.2
14 | GGAUCUUCUCGAUCUAACAAAAAAGACAAAUCUGCCAGAAAGCUUGAGAGCAUCUACGGAUGCAGAGGCGGCAGCCUUCGGUGGCGCGAUAGCACCAACGUUCUCAACUAUGACACGCAAGACGCGUGCUCCGUUGAAUGGAGUUUAUCAUG [C38G U56A G94A A121G] | -1.64
15 | GGAUCUUCUCGAUCUAACAAAAAAGACAAAUCUGCCACAAAGCUUGAGAGCAUCUUCGGAUGCAGAGGCGGCAGCCUUCGGUGGCGCGAUAGCGCCAACGUUCUCAACUAUGACACACAAAAAGCGUGCUCCGUUGAAUGGAGUUUAUCGUG [G117A C123A A150G] | -1.18
16 | GGAUCGUCUCGAUCUAACAAUAAAGGCAAAUCUGCCACACAGCUUGAGAGCAUCUUCGGAUGCAGGGGCGGCAGCCUUCGGUGGCGCGAUAGCGCCAACGUUCUCAUCUAUGACACGCAAAACGCGUGCUCCGUAGAAUGAAGUUUAUCAUG [U6G A21U A26G A40C A66G A107U U135A G141A] | ≤ -4.2
17 | GGAUCUUCUCGAGCUAACAAAAACGACAAAUCUGACACAAAGCUUGAGUGCAUCUUCGGAUGCAGAGGCGGCAGCGUUCGGUGGCGCGAUCGCGCCAACGUUCUCAACUAUGACACGCAAAACGCGUGCUCCGUUGAAUGGAGUUUAUCAUG [U13G A24C C35A A49U C76G A91C] | ≤ -4.2
18 | GGAUCUUCUCGAUUUAACAAAAAAGACAAAUCUGCCACAAAGCUUGAGAGCAUCUUCGGAUGCAGAGGCGGCAGCCUUCGGUGGCGCGAUAGCACCAACGUUCUCAACUAUGACACGCAAAACGCGUGCUCCGUUGAAUGGAGUUUAUCAUG [C14U G94A] | -1.85
19 | GGAUCUUCUCGAUCUAACAAAAAAGACAAAUCUGCCACAAAGCUUGAGAGCAUCUUCGGAUGCAGAGGCGGGAGCCGUCGGUGACGCGAUAGCGCCAACGUUCUCAACUAUGAGACGCAAAACGCGUGCUCCGUUGAAUGGAGUUUAUCAUG [C72G U77G G84A C114G] | ≤ -4.2
